Target: T1, CD3 epsilon homodimer protein (UniProt P07766 23-126)
T1 construct: also called CD3 (CD3 epsilon)
Test: SPR, CD3e homodimer on chip;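 note: surface plasmon resonance at 25 degrees C, antibodies flowed as analyte over CD3 epsilon homodimer amine-coupled to a CM4 chip, running buffer HBS-EP+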
Procedure: An appropriate amount of CD3 epsilon homodimer protein was immobilized onto Sensor chip CM4 (GE Healthcare Japan Corp.) by the amine coupling method. Then, the antibody having an appropriate concentration was injected thereto as an analyte and allowed to interact with the CD3 epsilon homodimer protein on the sensor chip. Then, the sensor chip was regenerated by the injection of 10 mmol/L glycine-HCl (pH 1.5). The assay was conducted at 25 degrees C., and HBS-EP+(GE Healthcare Japan Corp.) was used as a running buffer. […] Each parameter was calculated using Biacore T200 Evaluation Software (GE Healthcare Japan Corp.).
Specifically, when the amount of the GLS3000-containing antibody bound was defined as X and the amount of the L chain one-amino acid altered form bound was defined as Y, a value of Z (ratio of amounts bound)=Y/X was used.

T1 sequence (P07766 23-126): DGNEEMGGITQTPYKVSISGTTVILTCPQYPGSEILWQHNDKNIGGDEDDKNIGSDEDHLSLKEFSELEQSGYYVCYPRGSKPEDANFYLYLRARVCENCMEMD

Row | ratio of amounts bound (altered form / unaltered GLS3000 antibody) | Binder
1 | 0.89 | GLS3000 R24S one-arm antibody (H chain CE115HA000) (antibody, human IgG1, kappa, L234A L235A, N297A, name in Kabat numbering, one-arm antibody) heavy: QVQLVESGGGVVQPGRSLRLSCAASGFTFSNAWMHWVRQAPGKGLEWVAQIKAKSNNYATYYAESVKGRFTISRDDSKNSLYLQMNSLKTEDTAVYYCRYVHYGAYYGVDAWGQGTTVTVSSASTKGPSVFPLAPSSKSTSGGTAALGCLVKDYFPEPVTVSWNSGALTSGVHTFPAVLQSSGLYSLSSVVTVPSSSLGTQTYICNVNHKPSNTKVDKKVEPKSCDKTHTCPPCPAPEAAGGPSVFLFPPKPKDTLMISRTPEVTCVVVDVSHEDPEVKFNWYVDGVEVHNAKTKPREEQYASTYRVVSVLTVLHQDWLNGKEYKCKVSNKALPAPIEKTISKAKGQPREPQVYTLPPSRCELTKNQVSLSCAVKGFYPSDIAVEWESNGQPENNYKTTPPVLDSDGSFFLVSKLTVDKSRWQQGNVFSCSVMHEALHNHYTQKSLSLSPDYKDDDDK EPKSSDKTHTCPPCPAPELLGGPSVFLFPPKPKDTLMISRTPEVTCVVVDVSHEDPEVKFNWYVDGVEVHNAKTKPREEQYNSTYRVVSVLTVLHQDWLNGKEYKCKVSNKALPAPIEKTISKAKGQPREPQVCTLPPSRDELTKNQVSLWCLVKGFYPSDIAVEWESNGQPENNYKTTPPVLDSDGSFFLYSKLTVDKSRWQQGNVFSCSVMHEALHNRYTQKSLSLSP light: DIVMTQSPLSLPVTPGEPASISCSSSQSLVHSNRNTYLHWYQQKPGQAPRLLIYKVSNRFSGVPDRFSGSGSGTDFTLKISRVEAEDVGVYYCGQGTQVPYTFGQGTKLEIKRTVAAPSVFIFPPSDEQLKSGTASVVCLLNNFYPREAKVQWKVDNALQSGNSQESVTEQDSKDSTYSLSSTLTLSKADYEKHKVYACEVTHQGLSSPVTKSFNRGEC
2 | 0.88 | GLS3000 R24T one-arm antibody (H chain CE115HA000) (antibody, human IgG1, kappa, L234A L235A, N297A, name in Kabat numbering, one-arm antibody) heavy: QVQLVESGGGVVQPGRSLRLSCAASGFTFSNAWMHWVRQAPGKGLEWVAQIKAKSNNYATYYAESVKGRFTISRDDSKNSLYLQMNSLKTEDTAVYYCRYVHYGAYYGVDAWGQGTTVTVSSASTKGPSVFPLAPSSKSTSGGTAALGCLVKDYFPEPVTVSWNSGALTSGVHTFPAVLQSSGLYSLSSVVTVPSSSLGTQTYICNVNHKPSNTKVDKKVEPKSCDKTHTCPPCPAPEAAGGPSVFLFPPKPKDTLMISRTPEVTCVVVDVSHEDPEVKFNWYVDGVEVHNAKTKPREEQYASTYRVVSVLTVLHQDWLNGKEYKCKVSNKALPAPIEKTISKAKGQPREPQVYTLPPSRCELTKNQVSLSCAVKGFYPSDIAVEWESNGQPENNYKTTPPVLDSDGSFFLVSKLTVDKSRWQQGNVFSCSVMHEALHNHYTQKSLSLSPDYKDDDDK EPKSSDKTHTCPPCPAPELLGGPSVFLFPPKPKDTLMISRTPEVTCVVVDVSHEDPEVKFNWYVDGVEVHNAKTKPREEQYNSTYRVVSVLTVLHQDWLNGKEYKCKVSNKALPAPIEKTISKAKGQPREPQVCTLPPSRDELTKNQVSLWCLVKGFYPSDIAVEWESNGQPENNYKTTPPVLDSDGSFFLYSKLTVDKSRWQQGNVFSCSVMHEALHNRYTQKSLSLSP light: DIVMTQSPLSLPVTPGEPASISCTSSQSLVHSNRNTYLHWYQQKPGQAPRLLIYKVSNRFSGVPDRFSGSGSGTDFTLKISRVEAEDVGVYYCGQGTQVPYTFGQGTKLEIKRTVAAPSVFIFPPSDEQLKSGTASVVCLLNNFYPREAKVQWKVDNALQSGNSQESVTEQDSKDSTYSLSSTLTLSKADYEKHKVYACEVTHQGLSSPVTKSFNRGEC
